Assay results published in publication PMC8050316, “Tissue plasminogen activator is a ligand of cation-independent mannose 6-phosphate receptor and consists of glycoforms that contain mannose 6-phosphate” (Scientific Reports, 2021).

B1: human β-glucuronidase (enzyme, UniProt P08236 23-651, looked up)
chain: LQGGMLYPQESPSRECKELDGLWSFRADFSDNRRRGFEEQWYRRPLWESGPTVDMPVPSSFNDISQDWRLRHFVGWVWYEREVILPERWTQDLRTRVVLRIGSAHSYAIVWVNGVDTLEHEGGYLPFEADISNLVQVGPLPSRLRITIAINNTLTPTTLPPGTIQYLTDTSKYPKGYFVQNTYFDFFNYAGLQRSVLLYTTPTTYIDDITVTTSVEQDSGLVNYQISVKGSNLFKLEVRLLDAENKVVANGTGTQGQLKVPGVSLWWPYLMHERPAYLYSLEVQLTAQTSLGPVSDFYTLPVGIRTVAVTKSQFLINGKPFYFHGVNKHEDADIRGKGFDWPLLVKDFNLLRWLGANAFRTSHYPYAEEVMQMCDRYGIVVIDECPGVGLALPQFFNNVSLHHHMQVMEEVVRRDKNHPAVVMWSVANEPASHLESAGYYLKMVIAHTKSLDPSRPVTFVSNSNYAADKGAPYVDVICLNSYYSWYHDYGHLELIQLQLATQFENWYKKYQKPIIQSEYGAETIAGFHQDPPLMFTEEYQKSLLEQYHLGLDQKRRKYVVGELIWNFADFMTEQSPTRVLGNKKGIFTRQRQPKSAAFLLRERYWKIANETRYPHSVAKSQCLENSLFT
modifications: M6P on its N-linked glycans
notes: β-glucuronidase, human, lysosomal enzyme; also called mock-treated β-glucuronidase

Legend:
[1] = biological target: human cation-independent mannose 6-phosphate receptor domains 1-15 (entire extracellular region) (human) (UniProt P11717); assay: SPR; biotinylated human CI-MPR d1-15 on a streptavidin-coupled CM5 chip, tPA injected at various concentrations, 25 °C, 40 µl/min for 2 min, response at equilibrium fit with a one site specific binding model
[2] = biological target: bovine cation-independent mannose 6-phosphate receptor domains 1-15 (entire extracellular region) (bovine) (UniProt P08169); assay: SPR; bovine CI-MPR d1-15 amine coupled to a CM5 chip, tPA injected at various concentrations, 25 °C, response at equilibrium fit with a one site specific binding model
[3] = biological target: human cation-independent mannose 6-phosphate receptor domains 1-5 (human) (UniProt P11717); assay: SPR; C-terminally biotinylated human CI-MPR d1-5 on a streptavidin chip; tPA injected at various concentrations, one site specific binding fit; tPA at 120 nM with 5 mM M6P or 5 mM G6P
[4] = biological target: bovine cation-independent mannose 6-phosphate receptor domains 1-15 (entire extracellular region) (bovine) (UniProt P08169); assay: SPR; bovine CI-MPR d1-15 amine coupled; mock- or phosphatase-treated proteins injected in 10 mM HEPES, 150 mM sodium acetate, 5 mM β-glycerophosphate, 0.005% polysorbate-20, pH 7.4; tPA at 80 nM with 5 mM M6P, 5 mM G6P or no inhibitor
[5] = biological target: T1, bovine cation-independent mannose 6-phosphate receptor domains 1-15 (entire extracellular region) (bovine, UniProt P08169 47-2296); assay: SPR; recombinant tPA, native tPA or β-glucuronidase amine coupled; bovine CI-MPR d1-15 at 20 nM injected after preincubation with M6P, G6P or αMeMan (0.1, 1.0, 5.0 mM); settings: both partners purified
T1 construct: cation-independent mannose 6-phosphate receptor (CI-MPR), bovine, domains 1-15, amino acids 47-2296; also called bovine CI-MPR d1-15; CI-MPR d1-15; source: Sf9, secreted, purified (Ni-NTA, Sephacryl S-300)
T1 sequence (P08169 47-2296): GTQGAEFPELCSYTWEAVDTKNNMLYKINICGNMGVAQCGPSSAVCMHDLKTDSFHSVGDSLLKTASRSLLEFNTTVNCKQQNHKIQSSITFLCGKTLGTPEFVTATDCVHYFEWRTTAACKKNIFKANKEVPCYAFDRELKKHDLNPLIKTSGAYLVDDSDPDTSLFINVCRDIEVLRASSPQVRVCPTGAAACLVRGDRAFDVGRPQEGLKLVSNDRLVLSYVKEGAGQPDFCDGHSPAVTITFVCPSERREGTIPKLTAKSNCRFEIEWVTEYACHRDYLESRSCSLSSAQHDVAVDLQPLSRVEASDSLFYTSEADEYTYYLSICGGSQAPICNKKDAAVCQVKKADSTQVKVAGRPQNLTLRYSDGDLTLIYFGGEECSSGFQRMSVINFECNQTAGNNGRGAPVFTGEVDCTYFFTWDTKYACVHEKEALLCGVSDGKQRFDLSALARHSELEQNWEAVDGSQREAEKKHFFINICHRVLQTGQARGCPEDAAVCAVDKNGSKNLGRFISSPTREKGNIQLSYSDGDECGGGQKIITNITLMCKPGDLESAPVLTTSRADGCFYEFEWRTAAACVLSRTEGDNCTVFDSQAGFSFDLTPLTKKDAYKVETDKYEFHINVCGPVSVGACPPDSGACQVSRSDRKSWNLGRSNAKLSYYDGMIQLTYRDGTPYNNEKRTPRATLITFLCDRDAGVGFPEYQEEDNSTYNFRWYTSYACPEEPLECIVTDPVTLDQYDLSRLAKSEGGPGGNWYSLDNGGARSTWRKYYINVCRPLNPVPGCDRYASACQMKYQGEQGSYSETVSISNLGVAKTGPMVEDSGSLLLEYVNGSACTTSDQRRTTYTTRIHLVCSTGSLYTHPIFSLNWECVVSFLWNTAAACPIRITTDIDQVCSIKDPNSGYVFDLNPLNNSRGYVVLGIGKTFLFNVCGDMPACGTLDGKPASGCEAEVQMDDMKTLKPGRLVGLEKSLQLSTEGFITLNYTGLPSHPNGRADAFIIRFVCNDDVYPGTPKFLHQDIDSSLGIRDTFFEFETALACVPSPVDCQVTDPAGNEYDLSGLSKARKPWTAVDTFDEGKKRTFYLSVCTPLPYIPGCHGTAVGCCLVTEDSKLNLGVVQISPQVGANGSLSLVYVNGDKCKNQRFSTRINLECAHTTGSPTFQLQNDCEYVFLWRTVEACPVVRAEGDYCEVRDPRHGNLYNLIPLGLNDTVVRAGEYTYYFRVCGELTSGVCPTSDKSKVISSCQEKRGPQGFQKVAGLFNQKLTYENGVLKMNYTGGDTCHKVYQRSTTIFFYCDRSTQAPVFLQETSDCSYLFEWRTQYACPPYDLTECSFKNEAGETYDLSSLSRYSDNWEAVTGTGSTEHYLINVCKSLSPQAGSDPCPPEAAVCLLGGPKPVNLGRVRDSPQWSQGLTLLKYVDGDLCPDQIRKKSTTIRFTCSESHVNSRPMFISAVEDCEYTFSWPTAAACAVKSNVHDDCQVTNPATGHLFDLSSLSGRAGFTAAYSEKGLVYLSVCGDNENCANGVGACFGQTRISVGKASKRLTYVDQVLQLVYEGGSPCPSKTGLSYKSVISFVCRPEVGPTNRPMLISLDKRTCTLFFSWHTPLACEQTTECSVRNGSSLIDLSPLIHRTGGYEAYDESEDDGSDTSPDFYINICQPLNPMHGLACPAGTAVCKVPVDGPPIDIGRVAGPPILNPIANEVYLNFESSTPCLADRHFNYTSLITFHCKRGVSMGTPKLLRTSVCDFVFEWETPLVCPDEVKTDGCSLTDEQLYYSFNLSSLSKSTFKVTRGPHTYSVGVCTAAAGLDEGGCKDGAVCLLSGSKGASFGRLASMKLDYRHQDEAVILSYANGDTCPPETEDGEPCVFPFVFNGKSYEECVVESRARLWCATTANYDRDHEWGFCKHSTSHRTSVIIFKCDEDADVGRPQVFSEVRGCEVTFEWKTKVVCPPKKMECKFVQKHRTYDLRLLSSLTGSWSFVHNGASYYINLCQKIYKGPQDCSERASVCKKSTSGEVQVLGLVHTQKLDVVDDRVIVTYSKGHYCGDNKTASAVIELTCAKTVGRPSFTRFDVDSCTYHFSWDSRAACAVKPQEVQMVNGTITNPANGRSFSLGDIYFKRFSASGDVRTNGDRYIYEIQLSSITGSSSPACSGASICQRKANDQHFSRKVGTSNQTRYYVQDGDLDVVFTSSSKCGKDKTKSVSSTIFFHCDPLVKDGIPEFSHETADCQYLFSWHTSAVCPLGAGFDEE

human cation-independent mannose 6-phosphate receptor domains 1-5 (human), sequence (P11717 36-763): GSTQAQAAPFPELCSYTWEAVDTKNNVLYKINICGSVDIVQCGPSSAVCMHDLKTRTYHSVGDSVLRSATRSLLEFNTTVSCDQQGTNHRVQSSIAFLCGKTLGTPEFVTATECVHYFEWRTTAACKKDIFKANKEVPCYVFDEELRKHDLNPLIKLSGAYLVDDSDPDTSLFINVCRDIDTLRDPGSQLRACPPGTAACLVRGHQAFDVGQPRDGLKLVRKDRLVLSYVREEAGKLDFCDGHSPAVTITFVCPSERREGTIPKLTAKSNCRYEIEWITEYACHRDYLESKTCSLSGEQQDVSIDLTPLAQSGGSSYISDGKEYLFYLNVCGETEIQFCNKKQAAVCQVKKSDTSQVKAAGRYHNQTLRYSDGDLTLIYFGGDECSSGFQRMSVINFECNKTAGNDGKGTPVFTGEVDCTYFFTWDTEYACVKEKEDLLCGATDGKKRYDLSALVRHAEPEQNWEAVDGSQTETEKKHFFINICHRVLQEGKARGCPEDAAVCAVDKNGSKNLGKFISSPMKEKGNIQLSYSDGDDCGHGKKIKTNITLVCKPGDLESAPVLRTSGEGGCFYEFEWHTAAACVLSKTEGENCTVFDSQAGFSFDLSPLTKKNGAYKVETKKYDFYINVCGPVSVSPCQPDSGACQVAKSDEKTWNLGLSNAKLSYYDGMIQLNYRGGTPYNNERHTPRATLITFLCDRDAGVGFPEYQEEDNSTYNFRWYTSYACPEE
bovine cation-independent mannose 6-phosphate receptor domains 1-15 (entire extracellular region) (bovine), sequence (P08169 47-2296): as the sequence (P08169 47-2296) above

Molecule	Kd [1] [nM]	Kd [2] [nM]	Kd [3] [nM]	percent decrease in response at equilibrium with 5 mM G6P [3] [%]	percent decrease in response at equilibrium with 5 mM M6P [3] [%]	percent decrease in response with 5 mM G6P [4] [%]	percent decrease in response with 5 mM M6P [4] [%]	percent decrease in average response with 5 mM G6P [4] [%]	percent decrease in average response with 5 mM M6P [4] [%]	binding result [5]
native tissue plasminogen activator isolated from a human melanoma cell line (enzyme)	81	214	155	21	39					
phosphatase-treated recombinant tissue plasminogen activator (enzyme)						12	13			
recombinant human tissue plasminogen activator (Cathflo Activase, alteplase) (enzyme)	23	108	134	20	40			26	55	
B1										binds
